Assay results from patent US20220144895A1, “DE NOVO DESIGN OF TUNABLE PH-DRIVEN CONFORMATIONAL SWITCHES” (University of Washington, priority 2019, published 2022).
“Also recorded” adds a separate entry of the source.

Columns and labels:
U2-OS cells = test: Colocalization of +36GFP fusions with lysosomal membrane (confocal microscopy); format: cell-based; conditions: 5 μM, 1 hr
Protocol: U-2 OS (ATCC) cells were cultured in DMEM supplemented with 10% (v/v) inactivated FBS (Corning), 2 mM glutamine, penicillin (100 IU/mL), and streptomycin (100 μg/mL) at 37° C. and 5% CO2. The glass-bottom coverslip chambers were pre-coated with 500 μg/mL of Matrigel (Corning). Transfection of LAMP1-HaloTagTM was performed using Lonza Nucleofector system according to the manufacturer's specifications. After overnight of recovery and expression, the cells expressing LAMP1-HaloTagTM were labeled with 100 nM JF646-HTL for 30 minutes and washed three times with pre-warmed DMEM medium. The final concentration of 5 μM+36GFP fusion proteins was incubated with the LAMP1-HaloTagTM expressing U-2 OS cells on a pre-coated coverslip for 1 hr. Cells were fixed with 4% paraformaldehyde for 20 min at room temperature (RT) and quenched/rinsed with PBS supplemented with 30 mM glycine. Then, the coverslips were mounted on FluoroSaveTM (Millipore). For pH measurement of the lysosome, LysoSensorTM Yellow/Blue DND-160 was incubated at 1 mg/mL overnight and washed twice prior to imaging (54). The final concentration of 5 μM protein was incubated with the LAMP1-HaloTag expressing U2-OS cells that were loaded with 1 mg/mL LysoSensorTM Yellow/Blue DND-160 for 1 hr. In separate chambers, LysoSensorTM Yellow/Blue DND-160 loaded cells were incubated with bafilomycin A1 (1 μM) and chloroquine (50 μM) for 1 hr as a control. For fixed cell confocal microscopy, a customized Nikon TiE inverted scope outfitted with a Yokogawa spinning-disk scan head (#CSU-X1) along with an Andor iXonTM EM-CCD camera (DU-897) with […] exposure time was used to collect 3D images using an SR Apo TIRF 100×1.49 oil-immersion objective. […] coefficients were calculated in 3D with JF646 signal (LAMP-HaloTag) and +36GFP signal (corresponding proteins) using Imaris software with thresholding. Zeiss 880 equipped with AiryScanTM was also used to obtain high resolution images using a Plan-Apochromatic 63×/1.4 oil DIC objective.

[1] = Native mass spectrometry of pH-induced changes in oligomeric state; format: physicochemical; conditions: native MS
Outline: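 Protein in 200 mM ammonium acetate/50 mM triethylammonium acetate, acid-adjusted to each target pH, was held 30 min on ice and sprayed by nESI at 5 μM monomer or 1.67 μM trimer. Oligomer fractions came from integrated charge-state series, then fitted by nonlinear least squares.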

[2] = Cryo-electron microscopy and tomography of proteins with DOPC liposomes; conditions: gold-nanoparticle conjugates, pH 5 and pH 8
Protocol: The conjugation reactions were performed immediately prior to use for electron microscopy imaging. […] The grids were prepared using a Vitrobot Mark IV (FEI) at 4 C and 100% humidity before being plunge-frozen in ethane cooled with liquid nitrogen.
Electron micrographs were collected using a Tecnai G2 Spirit™ Transmission Electron Microscope (FEI) operated at 120 kV and equipped with a 4k×4k Gatan Ultrascan CCD camera at a nominal magnification of 26,000× or a Tecnai TF-20 Transmission Electron Microscope (FEI) operated at 200 kV equipped with a K2 Summit Direct Electron Detector (Gatan).
Projection micrographs collected on the TF-20 were captured with the detector operating in counting mode. Specimens were imaged at 14,500 magnification, giving a pixel size of 0.254 nm, with a dose of ˜18e−/Å^2 across 75 200 ms movie frames. Data were collected in a semi-automated fashion using Leginon™ (49) and micrograph movie frames were aligned using MotionCor2™ (50). Leginon™ was used to collect tomography tilt series from −48 to +48 degrees bidirectionally in 3 degree increments with a total accumulated dose of ˜100 e−/Å^2. Reconstructions were processed using etomo in the IMOD™ software suite (31) with CTF parameters estimated from CTFFIND4™ (52). Reconstructed tomograms were visualized and measurements were made using ImageJ™ (53).

[3] = Fluorescence dequenching liposome leakage (liposome disruption) assay; format: biochemical; conditions: pH 5, 2.5 μM protein
Protocol: Liposomes composed of DOPC (1,2-dioleoyl-sn-glycero-3-phosphocholine), DOPC with 25% cholesterol (molar ratio to DOPC), 3:1 DOPC:POPS (1-palmitoyl-2-oleoyl-sn-glycero-3-phospho-L-serine), and 3:1 DOPC:POPS with 25% cholesterol were prepared identically to a final concentration of 5 mM total lipid as previously described (32); lipids from Avanti Polar Lipids. Lipids solubilized in chloroform were dried under nitrogen gas and stored under vacuum for a minimum of 2 hours to remove residual solvent. The dried lipid film was the resuspended in Tris buffer (10 mM Tris, 150 mM NaCl, and 0.02% NaN3 pH 8.0) containing 25 mM Sulforhodamine B (SRB) fluorophore (Sigma) and subjected to 10 sequential freeze thaw cycles in liquid nitrogen. Liposomes were extruded 29 times through 100 nm pore size polycarbonate filters (Avanti Polar Lipids) and purified from free fluorophore using a PD-10 gel filtration column (GE Healthcare) into storage buffer (10 mM Tris, 150 mM NaCl, and 0.02% NaN3 pH 8.0). Liposome size and homogeneity was analyzed by dynamic light scattering (DLS) using a Dynapro Nanostar™ DLS (Wyatt Technologies). On average liposome diameter ranged from 120-130 nm with low polydispersity. Liposomes were stored at 4° C. and used within 5 days of preparation.
Liposome disruption and content leakage was analyzed by fluorescence spectroscopy as previously described (32). […] The solution was rapidly acidified to the target pH by addition of a fixed volume of acidification buffer and incubated for 20 minutes. […] SRB fluorescence is independent of pH within the ranges used here. Finally. Triton X-100 (Sigma) was added to a final concentration of 1% to fully disrupt liposomes. Liposome disruption as indicated by content leakage and SRB dequenching was normalized using the formula [Fω−F(0)]/[F(Max)−F(0)] where F(0) is the average fluorescence intensity before acidification and F(Max) is the average fluorescence intensity ater addition of Triton X-100. All measurements were collected on a Varian Cary Eclipse spectrophotometer using an excitation/emission pairing of […] and 2.5 nm slit widths at 24° C. Any data plotted together was collected using the sum batch of liposomes.

[4] = molecular target: the molecule itself; test: native mass spectrometry at 5 uM trimer
Protocol: Samples were buffer exchanged twice into 200 mM ammonium acetate (NH₄Ac; MilliporeSigma) using Micro Bio-Spin P-6 columns (Bio-Rad). […]

[5] = pH 7.4
From the text: For low-pH experiments involving circular dichroism (CD), small-angle X-ray scattering (SAXS), and size exclusion chromatography (SEC), Na2PO4-Citrate buffer was used to ensure that a single buffer system could be used that was stable over the entire pH range to be tested. Buffers were made using established ratios of stock solutions of 0.2 M Na2PO4 and 0.1 M Citrate; final pH was adjusted using hydrochloric acid (HCl) or sodium hydroxide (NaOH) if needed.
CD wavelength scans (260 to 195 nm) and temperature melts (25 to 95° C.) were measured using a JASCO™ J-1500 or an AVIV™ model 420 CD spectrometer. Temperature melts monitored absorption signal at 222 nm and were carried out at a heating rate of 4° C./min; protein samples were at 0.25 mg/mL in either phosphate buffered saline (PBS) pH 7.4 or Na2PO4-Citrate at indicated pH values (see Buffers systems for varying pH). Guanidinium chloride (GdmCl) titrations were all performed on an AVIV 420 spectrometer with an automated titration apparatus using either PBS pH 7.4 or Na2PO4-Citrate buffers at indicated pH at room temperature, monitoring helical signal at 222 nm, using a protein concentration of 0.025 mg/mL in a 1 cm cuvette with stir bar. Each titration consisted of at least 30 evenly distributed concentration points with one minute mixing time for each step. Titrant solution consisted of the same concentration of protein in the same buffer system plus GdmCl; GdmCl concentration of starting solutions was determined by reactive index.

B1: pRO-2-noHis subunit (homotrimer lacking histidine networks) (designed binder)
chain: GSEYEIRKALEELKASTAELKRSTASLRASTEELKKNPSEDALVENNRLIVENNAIIVENNRIIAAVLELIVRAIK
notes: forms a homotrimer; Tag-free form
colocalization with lysosomal membranes (U2-OS cells): not observed in lysosomes
oligomeric state at pH 7 / neutral pH [1]: assembled to the intended trimeric state
pH response of oligomeric state (pH-induced disassembly) ([1]; pH ~7 to ~3): remained trimeric at low pH; also recorded: no significant pH response
interaction with liposomes by cryo-EM [2]: no interactions with liposomes at either pH; also recorded: does not interact with liposomes at either pH
liposome disruption activity at pH 5 [3]: no detectable liposome activity
binding result [4]: binds
folding stability by GdmCl denaturation [5]: unaffected by change in pH
